Results as given in article PMC2900298.

Molecular target: HSV1(F) viral capsids treated with 0.5 M KCl (HSV1 strain F) (UniProt P10219)
Test: immunoelectron microscopy (immunogold labelling of capsids, negative staining); capsids incubated with […] pig brain cytosol, adsorbed on grids, labelled with antibodies against MAP subunits and protein-A gold; gold per mono-disperse capsid counted, labelling of capsids in buffer subtracted as background

Chain of UniProt P10219 (P10219 whole entry, looked up): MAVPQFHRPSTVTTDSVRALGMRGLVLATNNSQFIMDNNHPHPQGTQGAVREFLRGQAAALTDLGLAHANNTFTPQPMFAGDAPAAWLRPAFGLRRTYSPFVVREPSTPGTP

Row | Substance | gold particles per capsid above background | percent of capsids with more than one complex, background taken into account | percent of capsids with two labels
1 | kinesin-1 of pig brain (complex) | 0.5 gold/capsid | 10% | 20%
2 | cytoplasmic dynein of pig brain cytosol (complex) | 0.75 gold/capsid | 20% | 40%
3 | kinesin-2 of pig brain cytosol (complex) | 0.5 gold/capsid |  | 8%
